Test results published in EP4803150A2 (Lyvgen Biopharma Holdings Limited, dated 2026).

T1: CD3 (human)
T1 chain: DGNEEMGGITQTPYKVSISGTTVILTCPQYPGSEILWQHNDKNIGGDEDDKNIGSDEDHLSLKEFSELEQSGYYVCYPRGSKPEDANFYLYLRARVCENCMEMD

B1: Anti-CD3 Ly305 (antibody, V domains shown)
VH: EVQLVESGGGLVQPGGSLRLSCAASGFTFSTYAMNWVRQAPGKGLEWVGRIRSKYNNYATYYADSVKGRFTISRDDSKNSLYLQMNSLKTEDTAVYYCVRHGNFGNSYVSWFAYWGQGTLVTVSS
VL: QAVVTQEPSLTVSPGGTVTLTCRSSTGAVTTSNYANWVQQKPGQAPRGLIGGTNKRAPWTPARFSGSLLGGKAALTITGAQAEDEADYYCALWYSNLWVFGGGTKLTVL
notes: Parent mAb; also called CD3 mAb Ly305
B2: Ly1963 (multi-specific antibody)
chain 1: QVQLVQSGAEVKKPGASVKVSCKASGYTFTSYVMHWVRQKPGQGLEWIGYINPYNEGTESTDKFKGRATMTSDKSTSTVYMELSSLRSEDTAVYYCASIYYGYEGTYFGVWGQGTLVTVSSASTKGPSVFPLAPSSKSTSGGTAALGCLVKDYFPEPVTVSWNSGALTSGVHTFPAVLQSSGLYSLSSVVTVPSSSLGTQTYICNVNHKPSNTKVDKKVEPKSCGGGGSGGGGSGGGGSGGGGSEVQLVESGGGLVQPGGSLRLSCAASGFTFSTYAMNWVRQAPGKGLEWVGRIRSKYNNYATYYADSVKGRFTISRDDSKNSLYLQMNSLKTEDTAVYYCVRHGNFGNSYVSWFAYWGQGTLVTVSSGGGGSDKTHTCPPCPAPEAAGPSVFLFPPKPKDTLMISRTPEVTCVVVDVSHEDPEVKFNWYVDGVEVHNAKTKPREEQYNSTYRVVSVLTVLHQDWLNGKEYKCKVSNKALPAPIEKTISKAKGQPREPQVYTLPPSREEMTKNQVSLWCLVKGFYPSDIAVEWESNGQPENNYKTTPPVLDSDGSFFLYSKLTVDKSRWQQGNVFSCSVMHEALHNHYTQKSLSLSPGGGGGSGGGGSGGGGSGGGGSQVQLVQSGAEVKKPGASVKVSCKASGYTFAGFEMHWVRQAPGQGLEWMGAIDPKTGGTDYNQKFKDRVTMTRDTSISTAYMELSRLRSDDTAVYYCARDLGYFDVWGQGTLVTVSS
chain 2: QVQLVQSGAEVKKPGASVKVSCKASGYTFTSYVMHWVRQKPGQGLEWIGYINPYNEGTESTDKFKGRATMTSDKSTSTVYMELSSLRSEDTAVYYCASIYYGYEGTYFGVWGQGTLVTVSSASTKGPSVFPLAPSSKSTSGGTAALGCLVKDYFPEPVTVSWNSGALTSGVHTFPAVLQSSGLYSLSSVVTVPSSSLGTQTYICNVNHKPSNTKVDKKVEPKSCGGGGSGGGGSGGGGSGGGGSQAVVTQEPSLTVSPGGTVTLTCRSSTGAVTTSNYANWVQQKPGQAPRGLIGGTNKRAPWTPARFSGSLLGGKAALTITGAQAEDEADYYCALWYSNLWVFGGGTKLTVLGGGGSDKTHTCPPCPAPEAAGPSVFLFPPKPKDTLMISRTPEVTCVVVDVSHEDPEVKFNWYVDGVEVHNAKTKPREEQYNSTYRVVSVLTVLHQDWLNGKEYKCKVSNKALPAPIEKTISKAKGQPREPQVYTLPPSREEMTKNQVSLSCAVKGFYPSDIAVEWESNGQPENNYKTTPPVLDSDGSFFLVSKLTVDKSRWQQGNVFSCSVMHEALHNHYTQKSLSLSPGGGGGSGGGGSGGGGSGGGGSDIQMTQSPSSLSASVGDRVTITCRASQDIRSNLNWYQQKPGGAVKLLIYYTSRLHSGVPSRFSGSGSGTDYTLTISSLQPEDFATYFCQQSEKLPRTFGGGTKVEIR
chain 3: EIVLTQSPATLSLSPGERATLSCRASSSVSYMHWYQQKPGQAPRPWIYATSNLASGIPARFSGSRSGTDYTLTISSLEPEDFAVYYCQQWSSNTLTFGGGTKVEIKRTVAAPSVFIFPPSDEQLKSGTASVVCLLNNFYPREAKVQWKVDNALQSGNSQESVTEQDSKDSTYSLSSTLTLSKADYEKHKVYACEVTHQGLSSPVTKSFNRGEC
notes: Trispecific B7H3/CD3/CD137
B3: Ly1965 (bispecific antibody)
chain 1: QVQLVQSGAEVKKPGASVKVSCKASGYTFTSYVMHWVRQKPGQGLEWIGYINPYNEGTESTDKFKGRATMTSDKSTSTVYMELSSLRSEDTAVYYCASIYYGYEGTYFGVWGQGTLVTVSSASTKGPSVFPLAPSSKSTSGGTAALGCLVKDYFPEPVTVSWNSGALTSGVHTFPAVLQSSGLYSLSSVVTVPSSSLGTQTYICNVNHKPSNTKVDKKVEPKSCGGGGSGGGGSGGGGSGGGGSEVQLVESGGGLVQPGGSLRLSCAASGFTFSTYAMNWVRQAPGKGLEWVGRIRSKYNNYATYYADSVKGRFTISRDDSKNSLYLQMNSLKTEDTAVYYCVRHGNFGNSYVSWFAYWGQGTLVTVSSGGGGSDKTHTCPPCPAPEAAGPSVFLFPPKPKDTLMISRTPEVTCVVVDVSHEDPEVKFNWYVDGVEVHNAKTKPREEQYNSTYRVVSVLTVLHQDWLNGKEYKCKVSNKALPAPIEKTISKAKGQPREPQVYTLPPSREEMTKNQVSLWCLVKGFYPSDIAVEWESNGQPENNYKTTPPVLDSDGSFFLYSKLTVDKSRWQQGNVFSCSVMHEALHNHYTQKSLSLSPG
chain 2: QVQLVQSGAEVKKPGASVKVSCKASGYTFTSYVMHWVRQKPGQGLEWIGYINPYNEGTESTDKFKGRATMTSDKSTSTVYMELSSLRSEDTAVYYCASIYYGYEGTYFGVWGQGTLVTVSSASTKGPSVFPLAPSSKSTSGGTAALGCLVKDYFPEPVTVSWNSGALTSGVHTFPAVLQSSGLYSLSSVVTVPSSSLGTQTYICNVNHKPSNTKVDKKVEPKSCGGGGSGGGGSGGGGSGGGGSQAVVTQEPSLTVSPGGTVTLTCRSSTGAVTTSNYANWVQQKPGQAPRGLIGGTNKRAPWTPARFSGSLLGGKAALTITGAQAEDEADYYCALWYSNLWVFGGGTKLTVLGGGGSDKTHTCPPCPAPEAAGPSVFLFPPKPKDTLMISRTPEVTCVVVDVSHEDPEVKFNWYVDGVEVHNAKTKPREEQYNSTYRVVSVLTVLHQDWLNGKEYKCKVSNKALPAPIEKTISKAKGQPREPQVYTLPPSREEMTKNQVSLSCAVKGFYPSDIAVEWESNGQPENNYKTTPPVLDSDGSFFLVSKLTVDKSRWQQGNVFSCSVMHEALHNRFTQKSLSLSPG
chain 3: B2 chain 3
notes: B7H3/CD3
B4: Ly2128 (multi-specific antibody)
chain 1: QVQLVQSGAEVKKPGASVKVSCKASGYTFTSYVMHWVRQKPGQGLEWIGYINPYNEGTESTDKFKGRATMTSDKSTSTVYMELSSLRSEDTAVYYCASIYYGYEGTYFGVWGQGTLVTVSSASTKGPSVFPLAPSSKSTSGGTAALGCLVKDYFPEPVTVSWNSGALTSGVHTFPAVLQSSGLYSLSSVVTVPSSSLGTQTYICNVNHKPSNTKVDKKVEPKSCGGGGSGGGGSGGGGSGGGGSEVQLVESGGGLVQPGGSLRLSCAASGFTFSTYAMNWVRQAPGKGLEWVGRIRSKYNNYATYYADSVKGRFTISRDDSKNSLYLQMNSLKTEDTAVYYCVRHGNFGNSYVSWFAYWGQGTLVTVSSGGGGSDKTHTCPPCPAPEAAGPSVFLFPPKPKDTLMISRTPEVTCVVVDVSHEDPEVKFNWYVDGVEVHNAKTKPREEQYNSTYRVVSVLTVLHQDWLNGKEYKCKVSNKALPAPIEKTISKAKGQPREPQVYTLPPSREEMTKNQVSLWCLVKGFYPSDIAVEWESNGQPENNYKTTPPVLDSDGSFFLYSKLTVDKSRWQQGNVFSCSVMHEALHNHYTQKSLSLSPGGGGGSGGGGSGGGGSGGGGSQVQLVQSGAEVKKPGASVKVSCKASGYTFTSYYIHWVRQAPGQGLEWIGCIYPGNVNTNYNEKFKDRATLTVDTSISTAYMELSRLRSDDTAVYFCTRSHYGLDWNFDVWGQGTTVTVSS
chain 2: not shown
chain 3: B2 chain 3
notes: Tri-specific B7H3/CD3/CD28
B5: Ly2278 (bispecific antibody)
chain 1: QVQLQQSGAELVRPGSSVKISCKASGYAFSSYWMNWVKQRPGQGLEWIGQIWPGDGDTNYNGKFKGKATLTADESSSTAYMQLSSLASEDSAVYFCARRETTTVGRYYYAMDYWGQGTTVTVSSASTKGPSVFPLAPSSKSTSGGTAALGCLVKDYFPEPVTVSWNSGALTSGVHTFPAVLQSSGLYSLSSVVTVPSSSLGTQTYICNVNHKPSNTKVDKKVEPKSCGGGGSGGGGSGGGGSGGGGSEVQLVESGGGLVQPGGSLRLSCAASGFTFSTYAMNWVRQAPGKGLEWVGRIRSKYNNYATYYADSVKGRFTISRDDSKNSLYLQMNSLKTEDTAVYYCVRHGNFGNSYVSWFAYWGQGTLVTVSSGGGGSDKTHTCPPCPAPEAAGPSVFLFPPKPKDTLMISRTPEVTCVVVDVSHEDPEVKFNWYVDGVEVHNAKTKPREEQYNSTYRVVSVLTVLHQDWLNGKEYKCKVSNKALPAPIEKTISKAKGQPREPQVYTLPPSREEMTKNQVSLWCLVKGFYPSDIAVEWESNGQPENNYKTTPPVLDSDGSFFLYSKLTVDKSRWQQGNVFSCSVMHEALHNHYTQKSLSLSPG
chain 2: QVQLQQSGAELVRPGSSVKISCKASGYAFSSYWMNWVKQRPGQGLEWIGQIWPGDGDTNYNGKFKGKATLTADESSSTAYMQLSSLASEDSAVYFCARRETTTVGRYYYAMDYWGQGTTVTVSSASTKGPSVFPLAPSSKSTSGGTAALGCLVKDYFPEPVTVSWNSGALTSGVHTFPAVLQSSGLYSLSSVVTVPSSSLGTQTYICNVNHKPSNTKVDKKVEPKSCGGGGSGGGGSGGGGSGGGGSQAVVTQEPSLTVSPGGTVTLTCRSSTGAVTTSNYANWVQQKPGQAPRGLIGGTNKRAPWTPARFSGSLLGGKAALTITGAQAEDEADYYCALWYSNLWVFGGGTKLTVLGGGGSDKTHTCPPCPAPEAAGPSVFLFPPKPKDTLMISRTPEVTCVVVDVSHEDPEVKFNWYVDGVEVHNAKTKPREEQYNSTYRVVSVLTVLHQDWLNGKEYKCKVSNKALPAPIEKTISKAKGQPREPQVYTLPPSREEMTKNQVSLSCAVKGFYPSDIAVEWESNGQPENNYKTTPPVLDSDGSFFLVSKLTVDKSRWQQGNVFSCSVMHEALHNRFTQKSLSLSPG
chain 3: not shown
notes: CD19/CD3

Biological target: T1, CD3
Assay: CD3 binding as in Example 2 (ELISA or FCM)

Going from B1 to B2, the EC50 rises from 0.03 µg/mL to 0.74 µg/mL (25-fold).

Going from B3 to B4, the EC50 rises from 0.419 µg/mL to 1.08 µg/mL (2.6-fold).

B5 showed an EC50 of 1.46 µg/mL.
